Assay results published in patent US20220362394A1 (SUTRO BIOPHARMA, published 2022).
Like-named read-outs stand apart in the source and are kept apart here.

Key:
human BCMA on cells [1] = biological target: T1, human BCMA on cells (human, UniProt Q02223 1-184); experiment: FACS, NCI-H929 cells
T1 construct: also called hBCMA; BCMA on NCI-H929, ARP-1, OPM-2, U266B1, MM.1S, RPMI-8226 cells
T1 sequence: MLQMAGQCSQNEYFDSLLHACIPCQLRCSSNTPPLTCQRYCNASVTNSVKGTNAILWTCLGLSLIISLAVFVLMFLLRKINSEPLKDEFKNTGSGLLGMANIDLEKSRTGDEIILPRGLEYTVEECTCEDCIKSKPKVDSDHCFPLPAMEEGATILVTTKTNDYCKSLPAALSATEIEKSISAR
Summary of the method: (§1)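 Detection used 2.5 μg/ml Alexa647 anti-human IgG for 1 h on ice, then cells were fixed in 2% PFA. Read-out is the flow-cytometry geometric mean fluorescence intensity.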

cynomolgus BCMA on cells [2] = biological target: T2, cynomolgus BCMA on cells (cynomolgus monkey, UniProt Q02223 1-184 (human entry)); experiment: FACS, 293T-cynoBCMA cells
Summary of the method: as §1

human BCMA-Fc [3] = biological target: T3, human BCMA-Fc (human, UniProt Q02223 1-54); experiment: SPR Biacore, human BCMA-Fc kinetics
T3 construct: Bought from R&D Systems; also called huBCMA-Fc; not shown: Fc part not described
T3 sequence: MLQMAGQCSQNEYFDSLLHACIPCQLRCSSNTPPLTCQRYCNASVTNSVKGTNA
Experimental: Anti-Fab or anti-Fc polyclonal antibodies were immobilized onto a CM5 chip (GE Life Sciences) using amine coupling chemistry (from Amine Coupling Kit, GE Life Sciences). The immobilization steps were carried out at a flow rate of 25 μL/min in 1×HBS-EP+ buffer (GE Life Sciences; 10× Stock diluted before use). The sensor surfaces were activated for 7 min with a mixture of NHS (0.05 M) and EDC (0.2 M). The anti-Fab or anti-Fc antibodies were injected over all 4 flow cells at a concentration of 25 μg/ml in 10 mM sodium acetate, pH 4.5, for 7 min. Ethanolamine (1 M, pH 8.5) was injected for 7 min to block any remaining activated groups.
Off-rate and kinetic binding experiments were performed at 25° C. using 1×HBS-EP+ buffer. […] After capturing ligand (antibody) on the anti-Fab or anti-Fc surface, the analyte (human BCMA-Fc, cyno BCMA-Fc, or human BCMA from R&D Systems, custom protein production, or Sigma Aldrich, respectively) was bound for 180 seconds, followed by a 600 second dissociation phase at a flow rate of 50 μL/min. Between each ligand capture and analyte binding cycle, regeneration was carried out using 2 injections of 10 mM glycine pH 2.0 for 30 seconds at 30 μL/min, followed by a 30 second buffer wash step.
The data was fit with the Biacore T200 Evaluation software, using a 1-1 Langmuir binding model. KD (affinity, nM) was determined as a ratio of the kinetic rate constants calculated from the fits of the association and dissociation phases.

human BCMA-Fc [4] = biological target: T3, human BCMA-Fc; experiment: ELISA, coated huBCMA-Fc
cyno BCMA-Fc = biological target: T4, cyno BCMA-Fc (cynomolgus monkey, UniProt Q02223 1-54 (human entry)); experiment: ELISA, coated cynoBCMA-Fc
T4 construct: Custom protein production; also called cynomolgus BCMA-Fc; not shown: Fc part not described

human BCMA-Fc [5] = biological target: T3, human BCMA-Fc; experiment: SPR Biacore, antibody captured, 25 C
cynomolgus BCMA on cells [6] = biological target: T2, cynomolgus BCMA on cells; experiment: FACS, 293T-cynoBCMA cells; NSB = non-saturating binding
rat BCMA on cells = biological target: T5, rat BCMA on cells (rat); experiment: FACS, 293T-ratBCMA cells
T5 construct: whole, on cells

human BCMA on cells [7] = biological target: T1, human BCMA on cells; experiment: FACS, ARP-1 cells
Experimental: (§2) Cells were analyzed using a BD FACS Canto system. Fluorescence-activated cell sorting (FACS) data were analyzed using Flowjo software to calculate mean fluorescence intensity (MFI) (n=3 replicates) and data (mean MFI+/−standard error of the mean [SEM] versus nM of the antibody) was generated using the GraphPad Prism software.

human BCMA on cells [8] = biological target: T1, human BCMA on cells; experiment: FACS, MM.1S cells
Experimental: as §2

human BCMA on cells [9] = biological target: T1, human BCMA on cells; experiment: FACS, OPM-2 cells
Experimental: as §2

human BCMA on cells [10] = biological target: T1, human BCMA on cells; experiment: FACS, U266B1 cells
Experimental: as §2

human BCMA on cells [11] = biological target: T1, human BCMA on cells; experiment: FACS, NCI-H929 cells; remark: listed apart in the source
Experimental: as §2

human BCMA on cells [12] = biological target: T1, human BCMA on cells; experiment: FACS, RPMI-8226 cells
Experimental: as §2

human BCMA on cells [13] = biological target: T1, human BCMA on cells; experiment: cell-based or functional assay
human BCMA on cells [14] = biological target: T1, human BCMA on cells; experiment: cell-based or functional assay; remark: listed apart in the source
human BCMA on cells [15] = biological target: T1, human BCMA on cells; experiment: cell-based or functional assay; remark: listed apart in the source
cynomolgus BCMA on cells [16] = biological target: T2, cynomolgus BCMA on cells; experiment: FACS, 293T-cBCMA cells
mouse BCMA on cells = biological target: T6, mouse BCMA on cells (mouse, UniProt O88472 1-185); experiment: FACS, 293T-mBCMA cells; NB: No binding
T6 construct: HEK293T cells transfected with plasmid encoding mouse BCMA (Invivogen)
T6 sequence: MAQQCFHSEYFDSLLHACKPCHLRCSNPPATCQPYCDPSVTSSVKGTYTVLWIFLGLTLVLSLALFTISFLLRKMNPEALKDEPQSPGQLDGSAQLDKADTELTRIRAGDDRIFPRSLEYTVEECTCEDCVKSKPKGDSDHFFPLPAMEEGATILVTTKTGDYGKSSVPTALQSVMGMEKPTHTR
Experimental: Cells were plated in 96-well plates (100 k per well) and incubated with antibodies (titrated half-log serial dilutions from 200 nM) for 1 hour on ice. […] Cells were analyzed using a BD LSR-Fortessa X-20 flow cytometry system. FACS data were analyzed using Flowjo software to calculate geometric fluorescence intensity (gMFI) (n=3 replicates) and data (geo. Mean MFI+/−SEM versus log nM Ab) were generated using GraphPad Prism software.

human TACI on cells = biological target: T7, human TACI on cells (human, UniProt O14836 1-293); experiment: flow cytometry on 293T cells stably expressing human TACI, detected with PE-conjugated anti-human Fc antibody
T7 construct: whole, on cells; also called TNFRSF13B
T7 sequence (looked up): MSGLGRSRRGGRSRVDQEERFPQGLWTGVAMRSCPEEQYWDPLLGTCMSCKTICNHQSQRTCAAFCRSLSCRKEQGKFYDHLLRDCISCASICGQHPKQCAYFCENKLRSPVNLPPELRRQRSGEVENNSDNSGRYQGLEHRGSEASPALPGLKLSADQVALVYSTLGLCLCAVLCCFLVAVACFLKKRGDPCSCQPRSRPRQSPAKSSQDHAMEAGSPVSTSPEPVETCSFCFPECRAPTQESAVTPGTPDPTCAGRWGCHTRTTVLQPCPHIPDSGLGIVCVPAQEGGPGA

human BAFF-R on cells = biological target: T8, human BAFF-R on cells (human, UniProt Q96RJ3 1-184); experiment: flow cytometry on 293T cells stably expressing human BAFF-R, detected with PE-conjugated anti-human Fc antibody
T8 construct: whole, on cells; also called TNFRSF13C

human BCMA on cells [17] = biological target: T1, human BCMA on cells; experiment: FACS, 293T-hBCMA cells

T2 sequence (Q02223 other isoform, or with tags, fused parts or gaps): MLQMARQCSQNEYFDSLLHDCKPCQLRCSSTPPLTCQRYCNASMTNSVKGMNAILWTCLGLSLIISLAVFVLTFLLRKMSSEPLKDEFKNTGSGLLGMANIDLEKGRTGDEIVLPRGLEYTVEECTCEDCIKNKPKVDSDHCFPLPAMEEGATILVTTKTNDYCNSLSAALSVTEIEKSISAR

B1: 11D6 (antibody, V domains shown)
VH: AVTLDESGGGLQTPGGTLSLVCKASGFTFSSFNMFWVRQAPGEGLEWVAYIRNDGRSTSYGPAVKGRATISRDNGQSTVRLQLNNLRAEDTGTYFCAKTTCVGSGGCIDTWGHGTEVIVSS
VL: ALTQPSSVSANPGETVEITCSGGNSDYGWFQQKSPGSAPVTVIYRNNQRPSDIPSRFSGSGSGSTNTLTITGVQAEDEAIYYCGNVDFTDDVFGAGTTLTVL
notes: Chicken HybriFree-derived antibody; also called Antibody 32
- Bmax (human BCMA on cells [1]): 26400 MFI
- Kd (human BCMA on cells [1]): 47.5 nM
- Bmax (cynomolgus BCMA on cells [2]): 27700 MFI
- Kd (cynomolgus BCMA on cells [2]): 12.2 nM
- Kd (human BCMA-Fc [3]): 0.313 nM
- koff (human BCMA-Fc [3]): 0.000318 s⁻¹
- kon (human BCMA-Fc [3]): 1.02e+06 M⁻¹ s⁻¹

B2: 2190-B01 (antibody, V domains shown)
VH: EVQLVESGGGLVQPGGSLRLSCAASGFNISSYWIHWVRQAPGKGLEWVGVITPSGGYTYYADSVKGRFTISADTSKNTAYLQMNSLRAEDTAVYYCARDLGGGYWVGFFDYWGQGTLVTVSS
VL: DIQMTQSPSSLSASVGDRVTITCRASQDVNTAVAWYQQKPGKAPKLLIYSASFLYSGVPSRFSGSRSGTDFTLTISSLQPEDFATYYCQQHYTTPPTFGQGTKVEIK
notes: also called Antibody 16
- Bmax (human BCMA-Fc [4]): 3.68e+06
- EC50 (human BCMA-Fc [4]): 0.3 nM
- Bmax (cyno BCMA-Fc): 2.15e+06
- EC50 (cyno BCMA-Fc): 19.3 nM
- Kd (human BCMA-Fc [5]): 5.23 nM
- koff (human BCMA-Fc [5]): 0.000712 s⁻¹
- kon (human BCMA-Fc [5]): 136000 M⁻¹ s⁻¹
- binding result (cynomolgus BCMA on cells [6]): binds

B3: 10H1 (antibody, V domains shown)
VH: AVTLDESGGGLQTPGGALSLVCKASGFTFSGYGMGWMRQAPGKGLEYVARINSAGSDTDYGAAVKGRATISRDNGQSTVRLQLNNLRAEDTATYFCTRGGGGASIDGWGHGTEVIVSS
VL: ALTQPSSVSANPGETVKITCSGGGNYYGSYYYGWYQQKAPGSAPVTVIYNNNNRPSNIPSRFSGSKSGSTGTLTITGVQAEDEAVYFCGGFDSSSDAIFGAGTTLTVL
notes: Chicken HybriFree-derived antibody; also called Antibody 45
- Bmax (human BCMA on cells [1]): 22500 MFI
- Kd (human BCMA on cells [1]): 0.36 nM
- Bmax (rat BCMA on cells): 4350 MFI
- Kd (rat BCMA on cells): 0.39 nM
- Bmax (cynomolgus BCMA on cells [2]): 21200 MFI
- Kd (cynomolgus BCMA on cells [2]): 0.25 nM
- Kd (human BCMA-Fc [3]): 2.92 nM
- koff (human BCMA-Fc [3]): 17.9 s⁻¹
- kon (human BCMA-Fc [3]): 6.14e+09 M⁻¹ s⁻¹

B4: Conjugate 4 (antibody, human IgG1, kappa, V domains shown)
VH: EVQLVESGGGLVQPGGSLRLSCAASGFNISAPGIHWVRQAPGKGLEWVGFINPAGGYTDYADSVKGRFTISADTSKNTAYLQMNSLRAEDTAVYYCARDYIRQYWTYVLDYWGQGTLVTVSS
VL: not shown
modifications: p-azidomethyl-phenylalanine in place of HC-Y180 and HC-F404 (EU numbering), each bonded to a non-cleavable maytansine linker-warhead (Conjugate M); DAR4
notes: also called Conjugate 4 ADC; SP8919 ADC
- Kd (human BCMA on cells [7]): 1.2 nM
- Kd (human BCMA on cells [8]): 1.6 nM
- Kd (human BCMA on cells [9]): 2.3 nM
- Kd (human BCMA on cells [10]): 3.9 nM
- Kd (human BCMA on cells [11]): 2.4 nM
- Kd (human BCMA on cells [12]): 1.8 nM
- cell killing EC50, NCI-H929, Experiment 1 (human BCMA on cells [13]): 0.8 nM
- cell killing EC50, NCI-H929, Experiment 2 (human BCMA on cells [13]): 0.8 nM
- cell killing EC50, OPM2, Experiment 1 (human BCMA on cells [13]): 1.7 nM
- cell killing EC50, OPM2, Experiment 2 (human BCMA on cells [13]): 1.8 nM
- cell killing EC50, U266B1, Experiment 1 (human BCMA on cells [13]): 0.8 nM
- cell killing EC50, U266B1, Experiment 2 (human BCMA on cells [13]): 0.9 nM
- cell killing EC50, NCI-H929, Experiment 1 (human BCMA on cells [14]): 0.7 nM
- cell killing EC50, NCI-H929, Experiment 2 (human BCMA on cells [14]): 0.8 nM
- cell killing EC50, OPM2, Experiment 1 (human BCMA on cells [14]): 1.7 nM
- cell killing EC50, OPM2, Experiment 2 (human BCMA on cells [14]): 2 nM
- cell killing EC50, U266B1, Experiment 1 (human BCMA on cells [14]): 0.7 nM
- cell killing EC50, U266B1, Experiment 2 (human BCMA on cells [14]): 0.8 nM
- cell killing EC50, ARP-1, no competing reagent (human BCMA on cells [15]): 0.7 nM
- cell killing EC50, NCI-H929, no competing reagent (human BCMA on cells [15]): 0.9 nM
- cell killing EC50, OPM2, no competing reagent (human BCMA on cells [15]): 3.3 nM
- cell killing EC50, U266B1, no competing reagent (human BCMA on cells [15]): 0.9 nM
- Kd (cynomolgus BCMA on cells [16]): 2.7 nM
- binding result (mouse BCMA on cells): no binding (tested: 200 nM)
- binding result (human TACI on cells): no binding (tested: 67 nM)
- binding result (human BAFF-R on cells): no binding (tested: 67 nM)

B5: 2265-F02 Y180/F404 (unconjugated Ab) (antibody, human IgG1, kappa, V domains shown)
VH: EVQLVESGGGLVQPGGSLRLSCAASGFNISAPGIHWVRQAPGKGLEWVGFINPAGGYTDYADSVKGRFTISADTSKNTAYLQMNSLRAEDTAVYYCARDYIRQYWTYVLDYWGQGTLVTVSS
VL: not shown
modifications: p-azidomethyl-phenylalanine in place of HC-Y180 and HC-F404 (EU numbering), unconjugated
notes: also called unconjugated anti-BCMA antibody, 2265-F02; unconjugated antibody version of Conjugate 4
- Kd (human BCMA on cells [7]): 1 nM
- Kd (human BCMA on cells [8]): 0.9 nM
- Kd (human BCMA on cells [9]): 1.3 nM
- Kd (human BCMA on cells [11]): 0.9 nM
- Kd (human BCMA on cells [12]): 1.3 nM
- Kd (cynomolgus BCMA on cells [16]): 2.8 nM
- Kd (human BCMA on cells [17]): 2.1 nM
- binding result (mouse BCMA on cells): no binding (tested: 200 nM)
